Data taken from patent WO2022194311A2.
pKd: −log10 of the molar value.

Experiments:
Assay in all cases: SPR (Biacore 8K), His-tagged FcRn captured by anti-His antibody on CM5 chip, pH 6.0
[1] = molecular target: human FcRn (human) (UniProt P55899)
[2] = molecular target: cynomolgus monkey FcRn (cynomolgus monkey) (UniProt Q8SPV9)
[3] = molecular target: rat FcRn (rat) (UniProt P13599)

Measured: pKd

Chain of rat FcRn (rat) (P13599 23-298 limits assumed, form in doubt): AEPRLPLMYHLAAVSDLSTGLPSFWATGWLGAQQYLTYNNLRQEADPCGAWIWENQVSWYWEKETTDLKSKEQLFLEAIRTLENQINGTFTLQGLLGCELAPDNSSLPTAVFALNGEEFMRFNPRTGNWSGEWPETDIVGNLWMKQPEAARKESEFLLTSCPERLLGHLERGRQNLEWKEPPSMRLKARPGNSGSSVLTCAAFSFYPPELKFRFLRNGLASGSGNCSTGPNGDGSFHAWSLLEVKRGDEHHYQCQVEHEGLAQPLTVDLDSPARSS
Chain of human FcRn (human) (P55899 24-297 limits assumed, form in doubt): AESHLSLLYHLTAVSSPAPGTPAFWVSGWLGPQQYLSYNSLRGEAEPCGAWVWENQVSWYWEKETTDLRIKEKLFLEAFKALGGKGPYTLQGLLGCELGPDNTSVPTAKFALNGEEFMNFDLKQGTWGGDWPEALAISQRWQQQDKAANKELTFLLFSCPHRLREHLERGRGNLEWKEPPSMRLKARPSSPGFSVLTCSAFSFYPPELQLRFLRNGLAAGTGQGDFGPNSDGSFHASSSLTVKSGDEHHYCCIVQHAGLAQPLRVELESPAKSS
Chain of cynomolgus monkey FcRn (cynomolgus monkey) (Q8SPV9 24-297 limits assumed, form in doubt): as the sequence (P55899 24-297 limits assumed, form in doubt) above, with N39D, E44Q, G99S, S189G, S190N, L217M, S269T counted along it

secukinumab (Cosentyx) (antibody)
8.00: [1] | [2] | [3]
